This assay concerns the target ACE2-Fc-TD. Briefly: SPR. On the technique in general: Surface plasmon resonance follows binding to a sensor surface in real time, without labels.

For “SARS-CoV-2 S1 domain, B.1.1.7 (alpha variant) (from UniProt P0DTC2 14-681) (domain or fragment)”, the Half-life (ln2/kd) (s (from ln2/kd)) came to 1190 and the Kd – broadly, the free concentration of one partner at which half of the binding sites on the other are occupied at equilibrium, for simple one-to-one binding – was 1.73 nM.
“SARS-CoV-2 S1 domain, D614G (from UniProt P0DTC2 14-681) (domain or fragment)”: the Kd was determined as 6.91 nM.
Regarding “SARS-CoV-2 S1 domain, B.1.351 (beta variant) (from UniProt P0DTC2 14-681) (domain or fragment)”, the Half-life (ln2/kd) (s (from ln2/kd)) is 454.

These data come from article PMC8349458.
